The values below come from the DeepSol protein solubility set.

A short description of the data set: soluble on expression in E. coli; label from the status in PepcDB or PDB records.
“MAHHHHHHMRSTSALYRYACDEEGCVSHSELVKLFHGIDVALGTDADATAKADDMTPAPPPPALADKMLLAYAPNLCFPTHLTLSQSYLGDAGLAAFMRMLPVLRWVRAIEARGVGAGPRTIEALSGALTAYLVEGCEEAAALPTVATMGDSVSGAEQLAGGRLPALELVDLRDNDGIYALSGQRLLTALRKRRLMLRAWCAAHAGVGDVVPALEVLVDLDALPPSTANALHEWNEGAANLKYQRMLARETHRWQEQVQVFTVRSAVSEAMKCSDSDMPGTAVAGAAAGQPVGEHVIFRLPSSADGDSQMTQMTCEVNACMSDFLTASCCLSSAKEAAPQPAHVVSGSSSLACPLPTLDGVRAALQVCIDFGADTLAILPHTNATLWYVASVWQQQQKEQHATTPSSSADTAEYVQLNYWEAKANVAALLRGLQANPALETELETSSQAGGVVIQRHLYRLRELYVQLDQNDAPHEDAICTARVAGVGATPLSEMVALYYRIVAALVTRRFSETHLPSMRACEQHISDVTEHVLNHLVVGEVSSEALEARIERLRSSTDAGSVPSGRPSGASDFSQSTRALPPVMAQCLYHLRRHQAEAEAWVKTYAGTAVAAPQPSSSSAAAAPIHAFHACHCADGLRRHMDECVAPTSSNEGLSSNLLPLPCTSCCYHALQAAQTLLQSPGEGSSGECELCARWAILEPVRRALPRELRMFFLDMVIRHRSRVRGGCAYVPSLDSVTGVGAPLPLSMVDWLAYTEHQSENWAKVLRVFGEWYRLRALESYGIAEARTLLRQPPT”: the “soluble on expression in E. coli” value was “not soluble”. Under “MSRIIALIISFLLVGCATPPMPAQRIVGEVRMSRPLSRIAHIDVSMFGLYEGKVREVQRTHFETGNLPLFFSIKLNPAQRGEGELYLRSTLSFPERGVQAVAQQKLTGKNKVVLQMIPKTCYPNCQLPNTR” stands “not soluble”; under “MILDADYITEDGKPVIRVFKKEKGEFKIDYDRDFEPYIYALLKDDSAIEDIKKITAERHGTTVRVTRAERVKKKFLGRPVEVWKLYFTHPQDVPAIRDKIREHPAVVDIYEYDIPFAKRYLIDRGLIPMEGDEELRMLAFDIETLYHEGEEFGEGPILMISYADEEGARVITWKNIDLPYVESVSTEKEMIKRFLKVIQEKDPDVLITYNGDNFDFAYLKKRSEMLGVKFILGRDGSEPKIQRMGDRFAVEVKGRIHFDLYPVIRRTINLPTYTLETVYEPVFGQPKEKVYAEEIARAWESGEGLERVARYSMEDAKATYELGKEFFPMEAQLSRLVGQSLWDVSRSSTGNLVEWFLLRKAYERNDVAPNKPDERELARRTESYAGGYVKEPEKGLWENIVYLDYKSLYPSIIITHNVSPDTLNREGCREYDVAPQVGHRFCKDFPGFIPSLLGDLLEERQKVKKKMKATVDPIERKLLDYRQRAIKILANSYYGYYAYANARWYCRECAESVTAWGRQYIETTMREIEEKFGFKVLYADTDGFFATIPGADAETVKNKAKEFLNYINPRLPGLLELEYEGFYRRGFFVTKKKYAVIDEEDKITTRGLEIVRRDWSEIAKETQARVLEAILKHGDVEEAVRIVKEVTEKLSRHEVPPEKLVIYEQITRDLRSYRATGPHVAVAKRLAARGIKIRPGTVISYIVLKGPGRVGDRAIPFDEFDPAKHRYDAEYYIENQVLPAVERILRAFGYRKEDLRYQKTKQAGLGAWLKPKT”, “soluble”. Turning to “MGSDKIHHHHHHVRVTSSSGSCITIPTGVTNVTIRDSEIGPCGQPGDTSAKGIDIQSGASNITVQRNYIHDMATALYAAGARHPIIFDRNRVTNIRGPFPRGQMVQFNGVKSGTSGSKVTCNVSDVQGATYSNVEDHINMYDSGGLSNDRTEIAYNRLRGGSPTSNSGTAIMVGDGASGGNAWVHHNTIVNVRNVGIGVAGGTNIDVESNRIYMDRAATYTNVGLYVWSQGGGSCSGHSVTGNRAWVNSSNGAQNPWWNGGNCGAVELVSNVWGDTSLSSSMFNEVPSQCQ”, the “soluble on expression in E. coli” value is reported as “not soluble”. For “MCDSHQKEEDNANTSERALFFNYHEFSYSFYEDLGSEDAKPTEHDEDHKLCITHFPNVYAARGSAEFQVTRVVRVPRRFDESRSSLETPQFSTQLPGSEPAAIVGDDGTSFVRCGRYDIGDHVFGCSSVSPLSEYLSAAELAEVVHRVNGFLLREEGEVFGWRNLSGLLLDMLTGGLWSWVLGPLLSRPVFQESLALEQYVAQLNSPGGLLHERGVRLVLPRRSGCLSLDFVVPRPK”, the “soluble on expression in E. coli” value is given as “not soluble”. Then “MGSDKIHHHHHHMWTEIDTQISRVTGERFQSQQRRSVSGGCINQGYAVADGTLTYFVKLNQASQVAMFEAEALGLEQMLTTNSIRVPKPICWGIAGNSGYIVLEWLEMGSGNTNSWEEMGRNLAKMHKATSQKGYGWDMNNTIGSTPQINTWTEDWTEFYSKHRLGYQFQLARRRGGSFPKQDELLGALPELLADHEVQPSLVHGDLWGGNAGCTVSGEPVIFDPATYFGDREVDIAMTELFGGFPAAFYKGYNQVFPLDAGYEKRKTLYNLYHILNHFNLFGGGYASQANRMIEQILR”, with “not soluble”; and “MWEPSKRLKPVPILPELKEIGEQLQAQREQAMIEWAQTGYVKKLKARLVGRIIHGLGAGHIRETSLTIHPVYGLPYIPASSVKGLVRHWFIEAYCEGEEKQLNEHEIGREIFGTQGNKGIVQFHDIFLIESLQLTGDVLAVHMKEYYEGNRAATDDQKPVPVSFWTVMATEVDIYLTANRSAPQNDEETVRLLEAAALWTQQALTEWGIGSKTSSGYGRFAEVYDVTEMEFLPIVQKEQVRLEQQKKEREMLEQ”, with “not soluble”; and “METEEEIQNVNVHHGHNIRRTRIEKNIKQDALAALVNMTQPNVSKYEKMRVIEDEMLNRFARALNVPVEYLKTLEEDAPSVVFENITNNVHDNKDSSMGSTGYNNDSITNTFNPIDKITELYERLLKEKDEKYAALEKRIQGLEQQNNNGK”, with “not soluble”. For “MKTIDCRNMACPAPVVTTKRALEEAGGETVRVLVDAGAPRENVARFAANRGFRVAVEEADGGFAITIGSGEGAPSAPAENPARQGRTVMLITSDRLGDGPEDLGRLLMKSFIITLLDQESLPDRMMFLNSGVLLTTEGSEVLQALEQLGNRGVEVLSCGVCLDFFHCKEKLAAGTVTNMFTTAEALLTAGSVIRLLEHHHHHH”, the “soluble on expression in E. coli” value was “soluble”. Then “MGSDKIHHHHHHCDDNDGYSLGDIAVDWATVRVVGGDTYSLNADRWGTLWPAATAIPFYKPIDGQRVITYFNPLYDNYEGYDHAVKVEHNYNVLTKQVEDLTAENESEFGNDPVWVNKDMMWIGGGYLNVIFRQNLPVKEKHLVSLVRDMRATAAEGEDDGYIHLELRYKTYDDVTARQANGAVSFNLNSLDLTGKKGIKVKLNSVKDGETEVVFNLKGQSMPEEAKQVTLSDEVQIK”, with “not soluble”; and “MSRVCVFFLLSFIFSVHADPKVVNLFRVTSLGSLTISVESGGKIFLASGDDNQYLKNIQLTTGTTTITLDKLNDLNDDGSPKFITAAGSVILQTSNNDTTTSRLSGYIYVTTYLQAQDPTFSVYVLKTTQSISKMGMKSTVVVLNTVLRQELIDYDMPRAISYVTKIDHSPNTNLYFQWDIPASNWNDVTNNTFFRNPIELKNGTGPHFKVFFDNIEPLQIGLNYWYITSMGPFNLFLENKYVSDHSYTTTAVNTTGIIVGKSFYADRVVNFQSDTSRSSASGFFDSAYITDDLTIKLQFVGASFSNTLRKESETQNYAWSPAAPVNLTVTSTSTLPGTFYIQYFAFAGDLQPLTSTVATSLMLQTSTTTVASTAVTTSRIITTTKGSSSNCGVHILISLLLSMVFC”, with “not soluble”. Under “MGSDKIHHHHHHMITTDSGEQVEALAPIIISASRSTDIPAFYAKWFFNRLAKGYCVWYNPFNRRKMYVSFERCKAIVFWTKNPKLILPYLHELDRRGIHYYFQFTLNDYVSEGFEPNVPSVTQRVETFRELSEMIGKERVIWRFDPLIMTPSITPRVLLSRIWKIGNLLKGYTDKLVFSFVDVKAYRKVQNNLIKETNCFTKEDVETAEMNATQRQETVEGLVKLREIWASTGWNVTLATCAEDIDLTVYGIEHNRCIDGDLMERVFEEDYELVYYLRTGQLPEPDLFGTFPALPDKRKDLKDKGQRKACGCMISKDIGRYNTCRHFCVYCYANTSRECVQKNAVHYSDDSESLIRS” stands “not soluble”.
